Results published in patent publication US20150353608A1.
Where a chain is given by its changes, count along the chain named. Ends that are not written are not given here.

B1: polypeptide p17 (peptide)
peptide: GPGISAFSPGRGVYDPETGTWYDAAWHLGELVWATYYDPETGTWEPDWQRMLGQ
B2: variant polypeptide p17_P46A (peptide)
peptide: B1 peptide with P46A
B3: variant polypeptide p17_D47A (peptide)
peptide: B1 peptide with D47A
B4: variant polypeptide p17_M51A (peptide)
peptide: B1 peptide with M51A
B5: variant polypeptide p17_W48A (peptide)
peptide: B1 peptide with W48A
B6: variant polypeptide p17_R50A (peptide)
peptide: B1 peptide with R50A
B7: recombinant phage displaying polypeptide SEQ ID NO: 71 (protein, T7 phage, not shown: large carriers)
chain: DGVGPGSRGVYDPETGTWYDAAWHLGELVWATYYDPETGTWEPDWQRMLGQ
modifications: ends and bridges not checked
B8: recombinant phage displaying polypeptide SEQ ID NO: 63 (protein, T7 phage, not shown: large carriers)
chain: SNFVRSPSAWYDPETGTWYDAAWHLGELVWATYYDPETGTWEPDWQRMLGQ
modifications: not fully specified; ends and bridges not checked
B9: recombinant phage displaying polypeptide SEQ ID NO: 65 (protein, T7 phage, not shown: large carriers)
chain: GPYNIPDSAVYDPETGTWYDAAWHLGELVWATYYDPETGTWEPDWQRMLGQ
modifications: ends and bridges not checked
B10: recombinant phage displaying polypeptide SEQ ID NO: 66 (protein, T7 phage, not shown: large carriers)
chain: B9 chain with G1W, Y3L, I5A, D7S, V10F
modifications: ends and bridges not checked
B11: recombinant phage displaying polypeptide SEQ ID NO: 57 (protein, T7 phage, not shown: large carriers)
chain: B1 peptide
modifications: ends and bridges not checked
B12: recombinant phage displaying polypeptide SEQ ID NO: 64 (protein, T7 phage, not shown: large carriers)
chain: IPYGFPGRGEYDPETGTWYDAAWHLGELVWATYYDPETGTWEPDWQRMLGQ
modifications: ends and bridges not checked
B13: recombinant phage displaying polypeptide SEQ ID NO: 70 (protein, T7 phage, not shown: large carriers)
chain: B12 chain with I1W, P2M, Y3E, G4F, F5Y, E10V
modifications: ends and bridges not checked
B14: recombinant phage displaying polypeptide SEQ ID NO: 67 (protein, T7 phage, not shown: large carriers)
chain: VPPRFSSSAQYDPETGTWYDAAWHLGELVWATYYDPETGTWEPDWQRMLGQ
modifications: ends and bridges not checked
B15: recombinant phage displaying polypeptide SEQ ID NO: 69 (protein, T7 phage, not shown: large carriers)
chain: B14 chain with P2V, P3R, R4V, F5D, S6H, Q10V
modifications: ends and bridges not checked
B16: recombinant phage displaying polypeptide SEQ ID NO: 79 (protein, T7 phage, not shown: large carriers)
chain: B14 chain with V1G, P2S, P3C, R4K, A9C, Q10H
modifications: ends and bridges not checked; also: displayed on T7 phage coat protein g10
B17: recombinant phage displaying polypeptide SEQ ID NO: 80 (protein, T7 phage, not shown: large carriers)
chain: LIPPGGISPWYDPETGTWYDAAWHLGELVWATYYDPETGTWEPDWQRMLGQ
modifications: ends and bridges not checked
B18: recombinant phage displaying polypeptide SEQ ID NO: 72 (protein, T7 phage, not shown: large carriers)
chain: FVSSLPNSAMYDPETGTWYDAAWHLGELVWATYYDPETGTWEPDWQRMLGQ
modifications: ends and bridges not checked
B19: recombinant phage displaying polypeptide SEQ ID NO: 68 (protein, T7 phage, not shown: large carriers)
chain: FLVGLHAGAVYDPETGTWYDAAWHLGELVWATYYDPETGTWEPDWQRMLGQ
modifications: ends and bridges not checked

Molecular target: Fc region prepared from human monoclonal IgG by papain digestion (human)
Assay: SPR, Fc immobilized

First: DAAWHLGELVWATYYDPETGTWQPDWLYMTTR [polypeptide pep14]
Second: B1
The Kd of the first is 75-fold higher: 0.12 µM for the first, 0.0016 µM for the second.

Compared with B2, B3 is 8-fold higher in Kd: 0.0056 µM for the first, 0.045 µM for the second.

B4 and B5 are within 1.5-fold of each other in Kd: 0.18 µM for the first, 0.2 µM for the second.

Going from B6 to DAAWHLGELVWATYYDPETGTWLPDWQTMAQK [polypeptide pep21], the Kd rises from 0.0078 µM to 0.1 µM (13-fold).

With DAAWHLGELVWATYYDPETGTWAPDWRLMQGQ [polypeptide pep11] the Kd was 0.51 µM.

B4 and B5 cannot be ordered by fold decrease of binding activity against p17: greater than 100 times for the first, greater than 100 times for the second.

Molecular target: human Fc region manufactured by Jackson ImmunoResearch Laboratories, Inc. (human)
Assay: phage ELISA, HRP-labelled Fc

Compared with B7, YDPGTGTWRSWLSFNVG (peptide, T7 phage, not shown: large carriers, ends and bridges not checked) [recombinant phage displaying polypeptide SEQ ID NO: 5] is lower in O.D. 415: 0.219 for the first, 0.155 for the second.

Going from B8 to DAAWHLGELVWATYYDPETGTWTPDWNAMSQR (peptide, T7 phage, not shown: large carriers, ends and bridges not checked) [recombinant phage displaying polypeptide SEQ ID NO: 39], the O.D. 415 rises from 0.272 to 0.273.

Going from YDPGTGTWRSYLRFGGG (peptide, T7 phage, not shown: large carriers, ends and bridges not checked) [recombinant phage displaying polypeptide SEQ ID NO: 3] to YDPWTGTWRSFIWGGGG (peptide, T7 phage, not shown: large carriers, ends and bridges not checked) [recombinant phage displaying polypeptide SEQ ID NO: 6], the O.D. 415 falls from 0.278 to 0.149.

Compared with B9, B10 is lower in O.D. 415: 0.291 for the first, 0.182 for the second.

Compared with SWRRRGSSYDPRTGTWRSSIAYGGG (peptide, T7 phage, not shown: large carriers, ends and bridges not checked) [recombinant phage displaying polypeptide SEQ ID NO: 14], YDPYTGTWRSSIWVLSG (peptide, T7 phage, not shown: large carriers, ends and bridges not checked) [recombinant phage displaying polypeptide SEQ ID NO: 4] is lower in O.D. 415: 0.282 for the first, 0.165 for the second.

Going from B11 to DAAWHLGELVWATYYDPETGTWQPDWDIMAGH (peptide, T7 phage, not shown: large carriers, ends and bridges not checked) [recombinant phage displaying polypeptide SEQ ID NO: 31], the O.D. 415 rises from 0.229 to 0.295.

Compared with B12, B13 is lower in O.D. 415: 0.213 for the first, 0.189 for the second.

Compared with TGRGRSARYDPRTGTWRSSIAYGGG (peptide, T7 phage, not shown: large carriers, ends and bridges not checked) [recombinant phage displaying polypeptide SEQ ID NO: 15], EAWHLGELVWATYYDPETGTWRPDWSRMSGR (peptide, T7 phage, not shown: large carriers, ends and bridges not checked) [recombinant phage displaying polypeptide SEQ ID NO: 55] is lower in O.D. 415: 0.396 for the first, 0.252 for the second.

First: GAVYRRSFYDPRTGTWRSSIAYRGG (peptide, T7 phage, not shown: large carriers, ends and bridges not checked) [recombinant phage displaying polypeptide SEQ ID NO: 19]
Second: DAAWHLGELVWATYYDPETGTWLPDWDVMVRQ (peptide, T7 phage, not shown: large carriers, ends and bridges not checked) [recombinant phage displaying polypeptide SEQ ID NO: 32]
The O.D. 415 of the first is higher: 0.353 for the first, 0.352 for the second.

First: DAAWHLGELVWATYYDPETGTWMPDWDRMLRR (peptide, T7 phage, not shown: large carriers, ends and bridges not checked) [recombinant phage displaying polypeptide SEQ ID NO: 38]
Second: B14
The O.D. 415 of the first is higher: 0.29 for the first, 0.25 for the second.

Compared with B15, B16 is higher in O.D. 415: 0.201 for the first, 0.329 for the second.

Compared with DAAWHLGELVWATYYDPETGTWVPDWERMKQH (peptide, T7 phage, not shown: large carriers, ends and bridges not checked) [recombinant phage displaying polypeptide SEQ ID NO: 33], B17 is lower in O.D. 415: 0.305 for the first, 0.215 for the second.

Going from B18 to AGSRRAHGYDPRTGTWRSSIAYGGG (peptide, T7 phage, not shown: large carriers, ends and bridges not checked) [recombinant phage displaying polypeptide SEQ ID NO: 12], the O.D. 415 rises from 0.229 to 0.267.

First: DAAWHLGELVWATYYDPETGTWLPDWQTMAQK (peptide, T7 phage, not shown: large carriers, ends and bridges not checked) [recombinant phage displaying polypeptide SEQ ID NO: 26]
Second: DAAWHLGELVWATYYDPETGTWLPDWDYMSSK (peptide, T7 phage, not shown: large carriers, ends and bridges not checked) [recombinant phage displaying polypeptide SEQ ID NO: 37]
The O.D. 415 of the first is higher: 0.43 for the first, 0.235 for the second.

Going from DAAWHLGELVWATYYDPETGTWRPDWAVMATP (peptide, T7 phage, not shown: large carriers, ends and bridges not checked) [recombinant phage displaying polypeptide SEQ ID NO: 35] to DAAWHLGELVWATYYDPETGTWKPDWRMMGVP (peptide, T7 phage, not shown: large carriers, ends and bridges not checked) [recombinant phage displaying polypeptide SEQ ID NO: 36], the O.D. 415 falls from 0.32 to 0.287.

Going from B19 to YDPRTGTWRRSSLSYSG (peptide, T7 phage, not shown: large carriers, ends and bridges not checked) [recombinant phage displaying polypeptide SEQ ID NO: 9], the O.D. 415 rises from 0.186 to 0.193.

First: GSVVRWRGYDPRTGTWRSSIAYGGG (peptide, T7 phage, not shown: large carriers, ends and bridges not checked) [recombinant phage displaying polypeptide SEQ ID NO: 18]
Second: YDPRTGTWLLYASRLLG (peptide, T7 phage, not shown: large carriers, ends and bridges not checked) [recombinant phage displaying polypeptide SEQ ID NO: 7]
The O.D. 415 of the first is higher: 0.36 for the first, 0.214 for the second.

First: HWVNGRSGYDPRTGTWRSSIAYGGG (peptide, T7 phage, not shown: large carriers, ends and bridges not checked) [recombinant phage displaying polypeptide SEQ ID NO: 16]
Second: DAAWHLGELVWATYYDPETGTWEPDWSKMRPQ (peptide, T7 phage, not shown: large carriers, ends and bridges not checked) [recombinant phage displaying polypeptide SEQ ID NO: 34]
The O.D. 415 of the first is higher: 0.373 for the first, 0.281 for the second.

Compared with YDPVTGTWTSSIASWMG (peptide, T7 phage, not shown: large carriers, ends and bridges not checked) [recombinant phage displaying polypeptide SEQ ID NO: 8], DAAWHLGELVWATYYDPETGTWEPDWKLMQRP (peptide, T7 phage, not shown: large carriers, ends and bridges not checked) [recombinant phage displaying polypeptide SEQ ID NO: 30] is higher in O.D. 415: 0.223 for the first, 0.287 for the second.

Molecular target: human Fc region manufactured by Jackson ImmunoResearch Laboratories, Inc. (human)
Assay: SPR, Fc immobilized, 25 C

First: GVVRQWSGGGGSGGGGRSSIAYGGG [polypeptide 2A1Gly]
Second: RSSIAYGGG [polypeptide RSS]
The Kd of the first is 4.8-fold lower: 23 µM for the first, 110 µM for the second.
